Source: the supplement of paper PMC10567573

B1: CDC14A (parent)
chain: LWVQGDIFRSKLKNRPSSEGSINK

Variants of: B1
Assay: protein stability index of a GFP-peptide fusion (GPS, HEK-293T) (PSI 1-6); higher = more stable
Settings: c terminus: a fixed tail appended
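Also: lentivirally expressed fusions sorted by FACS into six bins by GFP to DsRed ratio, PSI derived from sequencing read proportions per bin multiplied by bin number.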

Variant	protein stability index
LWVYGDIFRSKLKNRPSSEGSINK [Q4Y]	1.95
LWVHGDIFRSKLKNRPSSEGSINK [Q4H]	2.67
LWVNGDIFRSKLKNRPSSEGSINK [Q4N]	2.66
LWVWGDIFRSKLKNRPSSEGSINK [Q4W]	1.82
LWVTGDIFRSKLKNRPSSEGSINK [Q4T]	2.41
LWVRGDIFRSKLKNRPSSEGSINK [Q4R]	1.87
LWVSGDIFRSKLKNRPSSEGSINK [Q4S]	3.29
LWVLGDIFRSKLKNRPSSEGSINK [Q4L]	2.62
LWVCGDIFRSKLKNRPSSEGSINK [Q4C]	2.46
LWVKGDIFRSKLKNRPSSEGSINK [Q4K]	2.19
LWVPGDIFRSKLKNRPSSEGSINK [Q4P]	2.74
LWVVGDIFRSKLKNRPSSEGSINK [Q4V]	1.81
LWVFGDIFRSKLKNRPSSEGSINK [Q4F]	1.73
LWVEGDIFRSKLKNRPSSEGSINK [Q4E]	2.19
LWVIGDIFRSKLKNRPSSEGSINK [Q4I]	2.11
LWVAGDIFRSKLKNRPSSEGSINK [Q4A]	1.9
LWVQGDIPRSKLKNRPSSEGSINK [F8P]	4.1
LWVQGDISRSKLKNRPSSEGSINK [F8S]	3.34
LWVQGDITRSKLKNRPSSEGSINK [F8T]	3.3
LWVQGDIDRSKLKNRPSSEGSINK [F8D]	3.67
LWVQGDIVRSKLKNRPSSEGSINK [F8V]	3.06
LWVQGDIYRSKLKNRPSSEGSINK [F8Y]	3.25
LWVQGDIERSKLKNRPSSEGSINK [F8E]	4.43
LWVQGDIARSKLKNRPSSEGSINK [F8A]	3.43

Variant	protein stability index
LWVQGDIGRSKLKNRPSSEGSINK [F8G]	3.01
LWVQGDINRSKLKNRPSSEGSINK [F8N]	3.01
LWVQGDIRRSKLKNRPSSEGSINK [F8R]	2.92
LWVQGDIKRSKLKNRPSSEGSINK [F8K]	3.23
LWVQGDILRSKLKNRPSSEGSINK [F8L]	2.75
LWVQGDICRSKLKNRPSSEGSINK [F8C]	3.14
LWVQGDIQRSKLKNRPSSEGSINK [F8Q]	3.78
LWVQGDIWRSKLKNRPSSEGSINK [F8W]	2.51
LWVQGDIIRSKLKNRPSSEGSINK [F8I]	2.62
LWVQGDIHRSKLKNRPSSEGSINK [F8H]	2.97
LWVQGDIMRSKLKNRPSSEGSINK [F8M]	2.42
LLVQGDIFRSKLKNRPSSEGSINK [W2L]	2.98
LMVQGDIFRSKLKNRPSSEGSINK [W2M]	3.48
LHVQGDIFRSKLKNRPSSEGSINK [W2H]	3.81
LKVQGDIFRSKLKNRPSSEGSINK [W2K]	3.74
LEVQGDIFRSKLKNRPSSEGSINK [W2E]	5.28
LFVQGDIFRSKLKNRPSSEGSINK [W2F]	3.07
LVVQGDIFRSKLKNRPSSEGSINK [W2V]	2.6
LPVQGDIFRSKLKNRPSSEGSINK [W2P]	4.26
LGVQGDIFRSKLKNRPSSEGSINK [W2G]	4.04
LNVQGDIFRSKLKNRPSSEGSINK [W2N]	4.07
LSVQGDIFRSKLKNRPSSEGSINK [W2S]	4.49
LTVQGDIFRSKLKNRPSSEGSINK [W2T]	4.6
LYVQGDIFRSKLKNRPSSEGSINK [W2Y]	2.67

Variant	protein stability index
LRVQGDIFRSKLKNRPSSEGSINK [W2R]	3.46
LCVQGDIFRSKLKNRPSSEGSINK [W2C]	3.8
LAVQGDIFRSKLKNRPSSEGSINK [W2A]	4.05
LDVQGDIFRSKLKNRPSSEGSINK [W2D]	4.4
LIVQGDIFRSKLKNRPSSEGSINK [W2I]	2.51
LQVQGDIFRSKLKNRPSSEGSINK [W2Q]	4.28
SWVQGDIFRSKLKNRPSSEGSINK [L1S]	4.05
VWVQGDIFRSKLKNRPSSEGSINK [L1V]	2.2
TWVQGDIFRSKLKNRPSSEGSINK [L1T]	4.24
YWVQGDIFRSKLKNRPSSEGSINK [L1Y]	2.43
RWVQGDIFRSKLKNRPSSEGSINK [L1R]	4.17
WWVQGDIFRSKLKNRPSSEGSINK [L1W]	2.3
LWVQGDIFRTKLKNRPSSEGSINK [S10T]	2.45
LWVQGDIFREKLKNRPSSEGSINK [S10E]	2.44
LWVQGDIFRHKLKNRPSSEGSINK [S10H]	2.48
LWVQGDIFRWKLKNRPSSEGSINK [S10W]	1.54
LWVQGDIFRMKLKNRPSSEGSINK [S10M]	2.49
LWVQGDIFRRKLKNRPSSEGSINK [S10R]	3.23
LWVQGDIFRVKLKNRPSSEGSINK [S10V]	2.92
LWVQGDIFRQKLKNRPSSEGSINK [S10Q]	3.37
LWVQGDIFRAKLKNRPSSEGSINK [S10A]	2.29
LWVQGDIFRCKLKNRPSSEGSINK [S10C]	2.3
LWVQGDIFRDKLKNRPSSEGSINK [S10D]	3.07
LWVQGDIFRYKLKNRPSSEGSINK [S10Y]	3.11

Variant	protein stability index
LWVQGDIFRFKLKNRPSSEGSINK [S10F]	2.05
LWVQGDIFRNKLKNRPSSEGSINK [S10N]	2.48
LWVQGDIFRGKLKNRPSSEGSINK [S10G]	3.17
LWVQGDIFRLKLKNRPSSEGSINK [S10L]	3.46
LWVQGDIFRKKLKNRPSSEGSINK [S10K]	2.35
LWVQGDIFRPKLKNRPSSEGSINK [S10P]	2.27
LWVQGDIFRIKLKNRPSSEGSINK [S10I]	2.31
LWYQGDIFRSKLKNRPSSEGSINK [V3Y]	2.89
LWGQGDIFRSKLKNRPSSEGSINK [V3G]	3.18
LWEQGDIFRSKLKNRPSSEGSINK [V3E]	4.85
LWDQGDIFRSKLKNRPSSEGSINK [V3D]	3.58
LWMQGDIFRSKLKNRPSSEGSINK [V3M]	2.73
LWSQGDIFRSKLKNRPSSEGSINK [V3S]	3.06
LWKQGDIFRSKLKNRPSSEGSINK [V3K]	3.26
LWNQGDIFRSKLKNRPSSEGSINK [V3N]	2.71
LWRQGDIFRSKLKNRPSSEGSINK [V3R]	3.34
LWAQGDIFRSKLKNRPSSEGSINK [V3A]	3.45
LWHQGDIFRSKLKNRPSSEGSINK [V3H]	1.99
LWCQGDIFRSKLKNRPSSEGSINK [V3C]	2.94
LWLQGDIFRSKLKNRPSSEGSINK [V3L]	2.07
LWPQGDIFRSKLKNRPSSEGSINK [V3P]	3.94
LWFQGDIFRSKLKNRPSSEGSINK [V3F]	2.64
LWWQGDIFRSKLKNRPSSEGSINK [V3W]	2.55
LWTQGDIFRSKLKNRPSSEGSINK [V3T]	3.12

Variant	protein stability index
LWQQGDIFRSKLKNRPSSEGSINK [V3Q]	3.32
LWVQGDLFRSKLKNRPSSEGSINK [I7L]	2.04
LWVQGDRFRSKLKNRPSSEGSINK [I7R]	2.31
LWVQGDQFRSKLKNRPSSEGSINK [I7Q]	2.97
LWVQGDSFRSKLKNRPSSEGSINK [I7S]	3.21
LWVQGDTFRSKLKNRPSSEGSINK [I7T]	3.3
LWVQGDYFRSKLKNRPSSEGSINK [I7Y]	2.66
LWVQGDMFRSKLKNRPSSEGSINK [I7M]	2.31
LWVQGDNFRSKLKNRPSSEGSINK [I7N]	3.82
LWVQGDHFRSKLKNRPSSEGSINK [I7H]	3.37
LWVQGDCFRSKLKNRPSSEGSINK [I7C]	3.09
LWVQGDKFRSKLKNRPSSEGSINK [I7K]	3.54
LWVQGDFFRSKLKNRPSSEGSINK [I7F]	2.01
LWVQGDWFRSKLKNRPSSEGSINK [I7W]	1.71
LWVQGDAFRSKLKNRPSSEGSINK [I7A]	3.29
LWVQGDGFRSKLKNRPSSEGSINK [I7G]	2.83
LWVQGDEFRSKLKNRPSSEGSINK [I7E]	3.71
LWVQGDDFRSKLKNRPSSEGSINK [I7D]	3.35
LWVQGDVFRSKLKNRPSSEGSINK [I7V]	2.98
LWVQGDPFRSKLKNRPSSEGSINK [I7P]	3.15
LWVQSDIFRSKLKNRPSSEGSINK [G5S]	2.52
LWVQWDIFRSKLKNRPSSEGSINK [G5W]	1.87
LWVQFDIFRSKLKNRPSSEGSINK [G5F]	2.59
LWVQPDIFRSKLKNRPSSEGSINK [G5P]	2.69

Variant	protein stability index
LWVQLDIFRSKLKNRPSSEGSINK [G5L]	2.92
LWVQDDIFRSKLKNRPSSEGSINK [G5D]	3.21
LWVQHDIFRSKLKNRPSSEGSINK [G5H]	2.52
LWVQRDIFRSKLKNRPSSEGSINK [G5R]	2.35
LWVQYDIFRSKLKNRPSSEGSINK [G5Y]	1.39
LWVQVDIFRSKLKNRPSSEGSINK [G5V]	1.53
LWVQNDIFRSKLKNRPSSEGSINK [G5N]	2.63
LWVQIDIFRSKLKNRPSSEGSINK [G5I]	2.35
LWVQMDIFRSKLKNRPSSEGSINK [G5M]	1.75
LWVQKDIFRSKLKNRPSSEGSINK [G5K]	2.3
LWVQCDIFRSKLKNRPSSEGSINK [G5C]	2.3
LWVQADIFRSKLKNRPSSEGSINK [G5A]	2.06
LWVQTDIFRSKLKNRPSSEGSINK [G5T]	2.29
LWVQEDIFRSKLKNRPSSEGSINK [G5E]	3.34
LWVQQDIFRSKLKNRPSSEGSINK [G5Q]	2.76
LWVQGWIFRSKLKNRPSSEGSINK [D6W]	1.37
LWVQGTIFRSKLKNRPSSEGSINK [D6T]	1.84
LWVQGRIFRSKLKNRPSSEGSINK [D6R]	1.9
LWVQGEIFRSKLKNRPSSEGSINK [D6E]	2.63
LWVQGHIFRSKLKNRPSSEGSINK [D6H]	2.24
LWVQGPIFRSKLKNRPSSEGSINK [D6P]	2.34
LWVQGFIFRSKLKNRPSSEGSINK [D6F]	1.58
LWVQGIIFRSKLKNRPSSEGSINK [D6I]	2.69
LWVQGMIFRSKLKNRPSSEGSINK [D6M]	2.61

Variant	protein stability index
LWVQGNIFRSKLKNRPSSEGSINK [D6N]	2.83
LWVQGAIFRSKLKNRPSSEGSINK [D6A]	2.27
LWVQGLIFRSKLKNRPSSEGSINK [D6L]	1.71
LWVQGQIFRSKLKNRPSSEGSINK [D6Q]	1.99
LWVQGGIFRSKLKNRPSSEGSINK [D6G]	2.64
LWVQGCIFRSKLKNRPSSEGSINK [D6C]	1.8
LWVQGSIFRSKLKNRPSSEGSINK [D6S]	2.28
LWVQGVIFRSKLKNRPSSEGSINK [D6V]	1.43
LWVQGYIFRSKLKNRPSSEGSINK [D6Y]	2.45
LWVQGKIFRSKLKNRPSSEGSINK [D6K]	1.74
LWVQGDIFRSQLKNRPSSEGSINK [K11Q]	2.33
LWVQGDIFRSILKNRPSSEGSINK [K11I]	1.66
LWVQGDIFRSELKNRPSSEGSINK [K11E]	2.63
LWVQGDIFRSRLKNRPSSEGSINK [K11R]	2.72
LWVQGDIFRSMLKNRPSSEGSINK [K11M]	2.49
LWVQGDIFRSCLKNRPSSEGSINK [K11C]	2.22
LWVQGDIFRSNLKNRPSSEGSINK [K11N]	3
LWVQGDIFRSPLKNRPSSEGSINK [K11P]	3.22
LWVQGDIFRSFLKNRPSSEGSINK [K11F]	2.3
LWVQGDIFRSALKNRPSSEGSINK [K11A]	2.26
LWVQGDIFRSHLKNRPSSEGSINK [K11H]	2.69
LWVQGDIFRSSLKNRPSSEGSINK [K11S]	2.99
LWVQGDIFRSDLKNRPSSEGSINK [K11D]	2.38
LWVQGDIFRSLLKNRPSSEGSINK [K11L]	2.23

Variant	protein stability index
LWVQGDIFRSGLKNRPSSEGSINK [K11G]	3.68
LWVQGDIFMSKLKNRPSSEGSINK [R9M]	2.18
LWVQGDIFISKLKNRPSSEGSINK [R9I]	2.4
LWVQGDIFLSKLKNRPSSEGSINK [R9L]	2.35
LWVQGDIFGSKLKNRPSSEGSINK [R9G]	2.56
LWVQGDIFDSKLKNRPSSEGSINK [R9D]	3.68
LWVQGDIFYSKLKNRPSSEGSINK [R9Y]	2.37
LWVQGDIFPSKLKNRPSSEGSINK [R9P]	3.18
LWVQGDIFWSKLKNRPSSEGSINK [R9W]	1.88
LWVQGDIFNSKLKNRPSSEGSINK [R9N]	3.4
LWVQGDIFCSKLKNRPSSEGSINK [R9C]	2.22
LWVQGDIFVSKLKNRPSSEGSINK [R9V]	2.65
LWVQGDIFKSKLKNRPSSEGSINK [R9K]	3.02
LWVQGDIFESKLKNRPSSEGSINK [R9E]	3.21
LWVQGDIFFSKLKNRPSSEGSINK [R9F]	2.57
LWVQGDIFHSKLKNRPSSEGSINK [R9H]	2.55
LWVQGDIFASKLKNRPSSEGSINK [R9A]	3.05
LWVQGDIFQSKLKNRPSSEGSINK [R9Q]	2.91
LWVQGDIFTSKLKNRPSSEGSINK [R9T]	2.85
LWVQGDIFSSKLKNRPSSEGSINK [R9S]	2.6
